The record followed here is patent publication US20230192841A1 (NANJING LEGEND BIOTECH, published 2023).

The assay has as its target T1, human Claudin18.2 (human, UniProt P56856-2 1-261).
T1 construct: whole, on cells; expressed on Dubca, HEK293T, PANC1 cells by lentiviral transduction; endogenous on NUGC4 and KATOIII cells; also called huCLDN18.2; CLDN18.2
Put plainly: phage ELISA and cell binding of phage supernatant, HEK293T.huCLDN18.2.Luc cells. How it is done: Phage ELISA was performed to identify clones specific to the target antigens. Individual output phage clones were grown in 96-deep-well plates and rescued by M13KO7 helper phage overnight. To identify clones that bound to antigen proteins, 96-well ELISA microtiter plates were coated with recombinant human HEK293T.huCLDN18.1.Luc and HEK293T.huCLDN18.2.Luc cells respectively in coating buffer overnight at 4° C., and the plates were then blocked with blocking buffer. After blocking, approximately 50 µL per well of phage supernatant from overnight cell culture was added to the plates for 1.5-hour incubation at 4° C. The plates were washed four times, and the HRP-conjugated anti-M13 monoclonal antibody was added to the plates for 45-minute incubation at 4° C. The plates were again washed five times and substrate solution was added to the wells for color developing. Absorbance at 450 nm was measured for each well.
To further identify clones that bind HEK293T.huCLDN18.2.Luc cells, the HEK293T.CLDN18.2.Luc cells were blocked with blocking buffer at room temperature for 1 hour. After blocking, approximately 20 µL per well of phage supernatant from overnight cell culture was added to the cell solutions for 1-hour incubation at room temperature. […] The absorption was measured at 450 nm.
For orientation: An ELISA detects its analyte on a solid surface through an enzyme-linked reagent.

B1: VHH182512 (VHH)
VHH: EVQLVESGGGSVQAGGSLTLSCEASRSTANMAWFRQGPGKEREGVAAAHSDGSTKYADSVKGRFTISKDNGKNTLYLRMNGLKPEEGVMYYCAARGSPWWNSVVALESYAYSYWGQGTQVTVSS
With B1, the binding result is reported as “binds”.
